Several values for one entry are separate records, joined by “and”; a condition that tells them apart may be missing. Identical values can stand only once. Blank lines part the entries; values can stand above or below the binder they belong to.
Legend:
[1] = biological target: T1, peptide corresponding to amino acid residues 37-51 of human α-synuclein (human); assay: peptide mapping with a series of 15-mer peptides
T1 construct: One of a series of 15-mer peptides spanning the length of human α-synuclein; also called 15-mer peptide
T1 peptide: VLYVGSKTKEGVVHG

[2] = biological target: T2, recombinant human α-synuclein (human, UniProt P37840 1-140); assay: SPR Biacore T200, antibody capture format, steady-state analysis (text summary of Table 2)
Method: (§1) Monovalent affinities of anti-α-synuclein antibodies 13F3 and 1F7 for human α-synuclein were assessed using Surface Plasmon Resonance in a Biacore T200 instrument. These experiments utilized an antibody capture format where the test antibody was immobilized by binding the test antibody to a chip pre-coated with a murine IgG capture reagent and subsequently allowed to bind α-synuclein protein in solution.
(§2) A murine IgG capture chip was prepared using the GE murine IgG capture kit according to the manufacturer's instructions. Briefly, a Series S CM5 sensor chip was activated with a mixture of EDC/NHS before exposure to a solution of capture antibody in a 10 mM sodium acetate (pH 5.0) buffer. Remaining covalent attachment sites were blocked with ethanolamine.
(§3) To assess binding, anti-α-synuclein monoclonal antibody 13F3 and anti-α-synuclein monoclonal antibody 1F7 were captured using a 1 μg/ml solution in running buffer (1×HBSP; 10 mM HEPES, pH 7.4, 150 mM NaCl, 0.05% Tween20) at a flow rate of 10 μl/min. Binding of human α-synuclein in solution was monitored at six different concentrations (a three-fold dilution series spanning concentrations from single-digit nanomolar to greater than 1 μM) and one replicate concentration, at a flow rate of 30 μl/min. […]

[3] = biological target: T2, recombinant human α-synuclein; assay: SPR Biacore T200, antibody captured on murine IgG capture chip, α-synuclein in solution, steady-state analysis, 25 C, Expt A
Method: as §1, §2, §3

[4] = biological target: T2, recombinant human α-synuclein; assay: SPR Biacore T200, antibody captured on murine IgG capture chip, α-synuclein in solution, steady-state analysis, 25 C, Expt B
Method: as §1, §2, §3

[5] = biological target: T3, synthetic peptide corresponding to amino acid residues 105-123 in human α-synuclein (human); assay: NMR competition, unlabeled peptide added to the Fab-α-synuclein complex
T3 construct: also called unlabeled peptide
T3 peptide: EGAPQEGILEDMPVDPDNE
Method: (§4) NMR was used to identify the binding epitope of anti-α-synuclein monoclonal antibody 13F3 and of anti-α-synuclein monoclonal antibody 1F7 as follows. NMR samples were prepared by adding a solution of ¹³C/¹⁵N labeled recombinant human α-synuclein in PBS […] at a concentration of 1 mg/ml (71 μM) purchased from Giotto Biotech (Sesto Fiorentino (FI), Italy) to a volume of 180 μl into 3 mm NMR tubes. Complex formation of the antibody bound form of α-synuclein was achieved by addition of an 18 mg/ml (120 μM) solution of antibody 13F3 and 17.8 mg/ml (118 μM) of antibody 1F7 in PBS (pH 7.2) in aliquots of 9 μl to the NMR sample. 2D HSQC-TROSY spectra were recorded at increasing concentration of Fab and the proton-amide cross peak intensity monitored in CCPN. (See Vranken et al (2005) Proteins 59:687-696.) All spectra were recorded at calibrated 300 K on a Bruker 600 MHz spectrometer using a 5 mm TXI cryo-probe. The final molar ratio used for data analysis of 1:0.5 α-synuclein:Fab. All data was processed using Topspin 3.1 (Bruker Karlsruhe, Germany) and visualized and analyzed using CCPN. Samples of ¹³C/¹⁵N labeled α-synuclein were measured in PBS (pH 7.2) buffer at 1 mg/ml corresponding to a concentration of 71 μM. […] Signal intensities were evaluated in CCPN. The signal errors were extrapolated in CCPN based on the signal to noise of the recorded data. […]

[6] = biological target: 13C/15N labeled recombinant human α-synuclein (human, UniProt P37840 1-140); assay: NMR 2D HSQC-TROSY, 1:0.5 α-synuclein:Fab; cutoff for epitope residues was attenuation above 50
Method: as §4

binding result [1]: binds
Kd [2]: 180 nM
Kd [3]: 130 nM
Kd [4]: 160 nM
B1: anti-α-synuclein monoclonal antibody 1F7 (mIgG2a) (antibody, V domains shown)
VH: EVQLQQSGAELVKPGASVKLSCTASGFNIKDYYMDWVKQRTEQGLEWIARIDPEDGETKYAPKFQGKATITADTSSNTAYLQLSSLTSEDTAVYYCRVFDYWGQGTTLTVSS
VL: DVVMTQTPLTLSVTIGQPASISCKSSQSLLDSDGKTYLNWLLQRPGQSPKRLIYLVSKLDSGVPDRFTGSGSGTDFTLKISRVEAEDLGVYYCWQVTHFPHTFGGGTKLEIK
notes: Mouse monoclonal, mIgG2a, expressed recombinantly in 293 cells

binding result [5]: binds
NMR signal attenuation at isoleucine 112 [6]: 1.79 fold
B2: anti-α-synuclein monoclonal antibody 13F3 Fab (Fab, V domains shown)
VH: QVQLQQSGAELVKPGASVKMSCKASGYTFTSYWITWVKKRPGQGLEWIGDISPGSGSTHYNEKFKSKATLTVDTSSSTAYIQLFSLTSEDSAVYYCAIAQTTFAYWGQGTLVTVSA
VL: DVLMTQTPLSLPVSLGDQASISCRSSQSIVHSNGNTYLEWYLQKPGQSPKLLIYKVSNRFSGVPDRFSGSGSGTDFTLKISRVEAEDLGVYYCFQGSHVPPTFGGGTRLEIK
notes: also called 13F3 Fab fragment

Kd [2]: 450 nM and 470 nM
Kd [3]: 410 nM and 490 nM
Kd [4]: 460 nM
B3: anti-α-synuclein monoclonal antibody 13F3 (mIgG2a) (antibody, V domains shown)
VH: B2 VH
VL: B2 VL
notes: as for B1

Source: patent US20160108113A1 (Genentech, published 2016)
